Laboratory results reported in the supplement of paper PMC10126150.
± gives the standard deviation of the averaged measurements.

Tested on: ATP
Assay: switch fluorescence ratio, 500 uM ATP over buffer (Cy3 cluster intensity, sum of 5 cycles each) (fold (ratio)); higher = stronger signal-on switching upon ATP binding; sequences stand for … in TCGTCGGCAGCGTCAGATGTGTATAAGAGACAGTTTTTTTTTTTTTTTTTTTTTTTTT…TC
Conditions: aptamer strand: ATP DNA aptamer (quencher-CACCTGGGGGAGTATTGCGGAGGAAGG + anchor), 100 nM annealed; ATP concentration: 500 uM
Outline: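 The fluorescence ratio divides summed target-cycle Cy3 intensity by summed buffer-cycle Cy3 intensity for each cluster and is averaged per switch-domain sequence. Cy3-labelled switching-strand clusters on a modified Illumina MiSeq flow-cell were annealed to 100 nM quencher-labelled ATP aptamer, then imaged in selection buffer and again after 15 min with 500 uM ATP at 22 °C. Five such cycles were run, with NaOH stripping and re-annealing between them, and clusters outside 100-1000 RFU were excluded.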
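Also: ATP exposure 15 min at 22 °C before imaging.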

Sequence	switch fluorescence ratio
GTACCCTATG	1.07 ± 0.029
GTACCTGTCT	0.99 ± 0.017
GTACGAACTT	1.32 ± 0.061
GTACTGTGTG	1.001 ± 0.0037
GTACTTCATA	1.03 ± 0.013
GTAGAAATGT	0.981 ± 0.027
GTAGCAACGG	1.59 ± 0.1
GTAGCTGGGG	0.98 ± 0.011
GTAGGACATC	1.01 ± 0.023
GTAGGGAAAG	1.009 ± 0.0087
GTAGGGATTA	0.9779 ± 0.0064
GTAGGGGGTG	1.02 ± 0.065
GTAGGGGTTC	0.982 ± 0.042
GTAGGTAAGC	1.03 ± 0.057
GTAGGTAGGT	0.99 ± 0.024
GTAGGTTTGA	0.994 ± 0.012
GTAGTAAAAC	1.69 ± 0.087
GTAGTAAGAT	1.07 ± 0.064
GTAGTAGCTT	1.017 ± 0.003
GTAGTATTAG	1.032 ± 0.0043
GTAGTGCGGG	0.9536 ± 0.0014
GTAGTGGGGT	0.987 ± 0.016
GTAGTGTGGT	0.999 ± 0.012

Sequence	switch fluorescence ratio
GTAGTTTGCG	0.928 ± 0.12
GTAGTTTTAC	1.042 ± 0.0071
GTATAAAACT	0.9986 ± 0.0087
GTATAAATGC	0.988 ± 0.046
GTATAGGGGC	0.977 ± 0.025
GTATATAAGT	0.98 ± 0.013
GTATCAACGG	1.034 ± 0.0028
GTATGAAAAG	0.9736 ± 0.0061
GTATGAAGGG	0.9756 ± 0.0049
GTATGAGGTG	1.02 ± 0.044
GTATGCGAGG	1 ± 0.08
GTATGGCGGG	1.008 ± 0.0032
GTATGGGATG	0.993 ± 0.015
GTATGGGCGG	0.991 ± 0.035
GTATGGGGTT	0.9641 ± 0.0085
GTATGTGGGG	0.996 ± 0.038
GTATTAATAT	1.01 ± 0.04
GTATTAATGT	1.01 ± 0.011
GTATTAGCTG	0.974 ± 0.0089
GTATTAGTAA	1.006 ± 0.0038
GTATTAGTGT	1.006 ± 0.0073
GTATTATCTG	0.9495 ± 0.0038
GTATTGGGGG	1.01 ± 0.043

Sequence	switch fluorescence ratio
GTATTGGGTA	0.99 ± 0.028
GTATTTACTT	1.02 ± 0.012
GTATTTATGA	0.974 ± 0.0056
GTATTTGAGT	0.991 ± 0.0031
GTCAAATGGT	0.972 ± 0.021
GTCAATTTGA	0.978 ± 0.062
GTCACCAGAT	1.002 ± 0.0077
GTCACTATTG	1.02 ± 0.0022
GTCAGTATAA	1.03 ± 0.059
GTCAGTGGGG	1.02 ± 0.052
GTCAGTGGGT	0.9682 ± 0.0079
GTCATAGTTA	0.983 ± 0.017
GTCATGAGCG	1 ± 0.012
GTCATTTGTA	0.9813 ± 0.0074
GTCCAAAAAA	1.08 ± 0.067
GTCCGTGTTA	0.994 ± 0.037
GTCGAAGCCC	1.03 ± 0.022
GTCGCAAGTT	1.01 ± 0.018
GTCGCTAATG	0.996 ± 0.016
GTCGGATGCT	1.02 ± 0.047
GTCGGCAGGG	1.06 ± 0.014
GTCGGCGTAA	0.9982 ± 0.0045
GTCGGGAAGG	1.013 ± 0.0026

Sequence	switch fluorescence ratio
GTCGGGAGGA	0.998 ± 0.025
GTCGGTATTA	0.984 ± 0.034
GTCGTAATTG	1.02 ± 0.016
GTCGTAGCGA	1.24 ± 0.016
GTCGTAGTAC	1.1974 ± 0.00024
GTCGTATGAC	1.08 ± 0.042
GTCGTATTAG	0.995 ± 0.022
GTCGTCGGAG	1.03 ± 0.019
GTCGTCGTCG	0.972 ± 0.012
GTCGTCTAAG	0.973 ± 0.051
GTCTAAACTT	1.01 ± 0.013
GTCTAAGGGG	1.11 ± 0.25
GTCTCAAAGA	1.017 ± 0.0083
GTCTGGGGGA	1.03 ± 0.042
GTCTTGGCTC	1.02 ± 0.031
GTGAAAAACT	1.03 ± 0.033
GTGAAAACGT	1.04 ± 0.035
GTGAAAGATT	1.02 ± 0.041
GTGAAAGGAG	0.997 ± 0.039
GTGAAAGGGG	1.11 ± 0.17
GTGAAAGGGT	1.02 ± 0.015
GTGAAGGGGA	1.09 ± 0.11
GTGAAGGGTA	0.985 ± 0.0081

Sequence	switch fluorescence ratio
GTGAATCGGG	0.973 ± 0.032
GTGACATGGA	1 ± 0.014
GTGACCGGGA	1 ± 0.027
GTGACGAGGG	0.981 ± 0.013
GTGAGAGCGG	0.963 ± 0.033
GTGAGATCGG	0.991 ± 0.029
GTGAGATGGA	0.953 ± 0.03
GTGAGATGGG	0.984 ± 0.03
GTGAGATGTA	0.991 ± 0.045
GTGAGCCACG	0.9932 ± 0.0014
GTGAGGAGGG	0.959 ± 0.07
GTGAGGCCCC	1 ± 0.02
GTGAGGGTTG	0.975 ± 0.03
GTGAGGTTTT	0.985 ± 0.021
GTGAGTTGCT	1.002 ± 0.005
GTGATAATGG	1.037 ± 0.0077
GTGATACACG	1.004 ± 0.0033
GTGATAGATT	1 ± 0.013
GTGATAGGGG	0.994 ± 0.053
GTGATATAGC	0.9807 ± 0.0071
GTGATATCTG	0.98 ± 0.038
GTGATATGGG	1.02 ± 0.036
GTGATGAACG	1.01 ± 0.092

Sequence	switch fluorescence ratio
GTGATGGAAA	0.964 ± 0.016
GTGATGGGGT	1.01 ± 0.038
GTGATGTTGG	1.02 ± 0.029
GTGATTGCGG	1.02 ± 0.069
GTGATTGGCG	0.971 ± 0.046
GTGATTGGGG	0.97 ± 0.028
GTGATTGTTT	1.009 ± 0.0091
GTGCAAAATG	1.0339 ± 0.00075
GTGCGATTGG	1.033 ± 0.0092
GTGCGCAATT	2.02 ± 0.082
GTGCGGGCGC	0.944 ± 0.04
GTGCGTTTGG	0.971 ± 0.022
GTGCTAGTCT	0.979 ± 0.067
GTGCTTAGGA	0.957 ± 0.029
GTGCTTGGCC	1 ± 0.047
GTGCTTGTGT	1.01 ± 0.04
GTGCTTTGCG	0.9928 ± 0.0014
GTGCTTTTGG	0.9997 ± 0.008
GTGGAAAGGA	0.991 ± 0.024
GTGGAAAGGG	1.01 ± 0.041
GTGGACACAC	1.04 ± 0.035
GTGGACCAGT	0.972 ± 0.024
GTGGACGG	0.9733 ± 0.0022

Sequence	switch fluorescence ratio
GTGGAGAAAT	1.04 ± 0.047
GTGGAGACGG	0.988 ± 0.034
GTGGAGGGGG	0.9841 ± 0.0047
GTGGAGGGTA	1.01 ± 0.029
GTGGATTGGC	0.982 ± 0.035
GTGGATTGTG	0.971 ± 0.067
GTGGCAGGTG	2.53 ± 0.053
GTGGCATAGC	0.981 ± 0.023
GTGGCGGGGG	1.01 ± 0.026
GTGGCTAACT	1.04 ± 0.035
GTGGCTTAGG	0.9796 ± 0.0035
GTGGCTTTTT	1 ± 0.037
GTGGGACCTT	1.06 ± 0.069
GTGGGACTGT	1.015 ± 0.0021
GTGGGAGCTG	0.99 ± 0.0079
GTGGGAGG	1.02 ± 0.025
GTGGGAGGAC	1.078 ± 0.0018
GTGGGATAGG	0.985 ± 0.038
GTGGGATTGA	0.9898 ± 0.0043
